Assay results published in the supplement of paper PMC12764529.
± gives the half width of the 95% confidence interval.

Columns and labels:
[1] = folding stability dG unfold from trypsin proteolysis; higher = more stable
Experimental: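 Folding stability of de novo designed mini-proteins (<80 aa, no Cys; designed by TrROS, TrMRF, ProteinMPNN and the joint model) was measured by cDNA display proteolysis with trypsin and chymotrypsin. Each protease was used at 11 concentrations in a threefold dilution series plus a no-protease condition. K50 was inferred by Bayesian fitting of sequencing counts, and dG unfold was derived against a sequence-predicted unfolded-state K50 (Tsuboyama et al. method). Sequences shown include variable-length N-terminal GS-type padding (SAGGSAGG...) inside a display construct carrying a PA tag. Rows were kept only if the AF2 dimer inter-PAE was >15, to exclude likely homo-oligomers.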

[2] = folding stability dG unfold (combined trypsin and chymotrypsin); higher = more stable
In short: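 Only designs with AlphaFold2 dimer inter-PAE above 15 were retained; each was a mini-protein under 80 residues with no cysteine, in a PA-tagged cDNA display construct. After digestion with trypsin and chymotrypsin and sequencing, K50 was inferred by Bayesian fitting of counts, and unfolding free energy was derived per protease or combined against a sequence-predicted unfolded-state K50 and a shared folded-state K50.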

Sequence | folding stability dG unfold [1] [kcal/mol] | folding stability dG unfold [2] [kcal/mol]
SAPVKDKNGKKREVEIHIWVPEEERKKNGTPEQIKWLARERARAAGLKPDRIKEVKIKIMPPEDMPEGFSAG [r14_446_TrROS] | -0.729 ± 0.54 | < -1
SAGMVTFIDTTPGKAVVAVEDPATGTSRTIELDLDSPDGRPASLEEIKKVVEELVKEERPDLTVDVKLASAG [r5_293_JUSTAS] | -0.506 ± 0.15 | < -1
SAGGMTTTVTVEKFPDGSVTEVTTLPNGIVLTTPLPYTKVVPVDPPDGPAVSWGPVTVTSTESVSSEASAGG [r13_236_JUSTAS] | 0.393 ± 0.068 | 0.0898 ± 0.26
SMEIKVTVEEKDGKKYVTIEIKLSEEELKGKELTEEEIEELARELAKKLGIKEVKIERLPNGTYRIVIELSA [r9_883_TrROS_Hall] | 4.47 ± 0.39 | > 6
SAGGMKVEVVETPTSLQIVTTTISTEKIPFNDVTLTTVTTEVKTIPLPEKPPVGLPYFDPEGKPLLLSAGGS [r8_46_JUSTAS] | -0.0171 ± 0.07 | -0.424 ± 0.18
SAGGQTIEIPNGITITYYPNNQVTITIRYPGRPLTVTSPYDSPEEAIDNIIEQAREMARPPPPKKKDDSAGG [r13_896_TrROS] | 0.633 ± 0.16 | 0.68 ± 0.41
SAGGSQEFKFEILVPFDSPEEAKEEAEEIAKILQDHGLDVKVKVERDPNGAVKVPPTIRVDPEDGRPLSAGG [r13_697_TrROS] | 0.397 ± 0.1 | -0.236 ± 0.31
SAGSSSTTIEVPVGDPAKAGSVEEYKEKLIKEGFSESDVPTATPLPDGTRLVTFKSPSTTVTLVVPLGESAG [r5_144_JUSTAS] | -0.341 ± 0.056 | -0.846 ± 0.2
SAGGSAGGSAGSPIPVEVKVTTFGPGGVPREAELLTGDPAAFEKAIGKPLPDGSKVEVLLSAGGSAGGSAGG [r11_671_JUSTAS] | -0.129 ± 0.083 | -0.955 ± 0.48
SAGGSAGGMVTFDTPEELEALIEELLARHPRDVPVDVTIESEDSRYTIKVAPERVEEISESEGSSAGGSAGG [r6_289_JUSTAS] | -0.763 ± 0.47 | < -1
SAGGSAGGSAGGSGPEPKFTVEVDPEKDEVTFLVELEDKPLLLVVKDWPEDDPLLKNAFSAGGSAGGSAGGS [r4_328_TrMRF] | 0.388 ± 0.097 | 0.0825 ± 0.29
SAGGSAGGSAGEEIIRAAKEAAKAGKKVRIVVPKGMSAEEIAKKLAEELNIEKVEVYELPSAGGSAGGSAGG [r11_524_TrROS_Hall] | 0.332 ± 0.086 | -0.142 ± 0.11
SAGGSAGGSATIKIKVPPGEPYMIRIRWPDGKSHEHNVPPGEEITIPPDNFDGITPIEIQPYSAGGSAGGSA [r18_210_TrROS] | 0.288 ± 0.19 | 0.11 ± 0.56
SAGPPNMEPVETHTFPFPGKKIKIKVYRNPDGHVKIKLEDPGKKIEQSAPVPPGEPVEIPIRLPNGKPISAG [r5_878_TrROS] | -0.904 ± 0.52 | < -1
SAGGKIREVEIEEFDPDNGWVMITFNMPPEDLDKMKPIKLPGIKDVHWDPGNDHISASMPLEEAKEASAGGS [r16_614_TrROS] | -0.121 ± 0.17 | -0.5 ± 0.41
SAGPKVVKIEFLEDNTAKITVEVGSKPVEVEVPVGSVFLIPGGEKIEVIEPGKAKVSPLPEVDVDPEKSAGG [r19_17_TrMRF] | -0.848 ± 0.33 | < -1
SKTVEIPIRNPNGMQVNIMANPEKGKVMIHMGNNMPFENIKKALRELLPPGKDVDITTHPNGMAVIELKPSA [r9_933_TrROS] | -0.277 ± 0.19 | -0.734 ± 0.43
SAGGMTVTVPREGPVTEEDVEKIAAELAAQGLKEVPLVVIETEKGSLPDGRPTELVRERTYYYEYPESAGGS [r16_44_JUSTAS] | -0.307 ± 0.31 | < -1
SAGGSAGGSAGVIEVPIEELENLPDDVKVVPTENTAVIYNEKNPIVVPKNEPVLIAPSDKSAGGSAGGSAGG [r17_91_TrMRF] | 0.937 ± 0.051 | < -1
SAGKNPGPVLILADGGEEGVKAVAYFPDGPLETEFPGSGDIAIVIPPGLTPSDVLKAAAVALKEAAESSAGG [r19_170_TrMRF] | 0.396 ± 0.037 | -0.337 ± 0.24
